Biological target: proteasome αΔ12-subunit (Thermoplasma acidophilum 20S proteasome α-subunit, first 12 residues removed) (Thermoplasma acidophilum, UniProt P25156 13-233)
Test: […]

Chain of proteasome αΔ12-subunit (Thermoplasma acidophilum 20S proteasome α-subunit, first 12 residues removed) (P25156 13-233, stated change not applied): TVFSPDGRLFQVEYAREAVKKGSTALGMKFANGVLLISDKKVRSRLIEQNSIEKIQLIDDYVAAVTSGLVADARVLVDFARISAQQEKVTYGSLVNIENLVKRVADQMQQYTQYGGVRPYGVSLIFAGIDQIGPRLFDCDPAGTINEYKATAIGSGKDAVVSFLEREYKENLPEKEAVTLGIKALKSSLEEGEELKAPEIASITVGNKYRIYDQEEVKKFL

B1: proteasome β-subunit (Thermoplasma acidophilum 20S proteasome) (natural protein)
chain: TTTVGITLKDAVIMATERRVTMENFIMHKNGKKLFQIDTYTGMTIAGLVGDAQVLVRYMKAELELYRLQRRVNMPIEAVATLLSNMLNQVKYMPYMVQLLVGGIDTAPHVFSIDAAGGSVEDIYASTGSGSPFVYGVLESQYSEKMTVDEGVDLVIRAISAAKQRDSASGGMIDVAVITRKDGYVQLPTDQIESRIRKLGLIL
binding result: binds

— paper doi:10.1101/2020.12.04.411884 (bioRxiv, 2020)
